We go through 8 molecules from patent US20180244757A1.

Assay [1] has as its target Heartland virus (HRTV) nucleocapsid (N) protein (Heartland virus (HRTV)).
Assay [2] has the same target. The assay can be described thus: ELISA, purified HRTV coated on the plate, MAb titrated.
In assay [3] the target is SFTSV antigen (SFTSV-infected Vero cells). The experiment in a line: IFA on acetone-fixed SFTSV-infected Vero cells, MAb in doubling dilutions.

B1: MAb 2AG9 (antibody, V domains shown)
VH: ELARPGASVKLSCKASGYTFTNYYMQWIKQRPGQGLEWIGAVYPGDGDTRYTQKFKGKASLTADKSSTTAYMQLSSLASEDSAVYYCTRGDYEGTWFTYWGQGTLVTVSA
VL: DIVMTQTTAIMSASPGEKVTMTCSASSSVSYMHWYQQKSGTSPKRWMYDTSKLASGVPGRFSGSGSGTTYSLTISTMEAEDAATYYCQQWSSNPPTFGGGTKLEIK
Take B1: the ELISA endpoint in assay [1] was 1.53 ng/mL. In assay [2], this molecule yielded an ELISA endpoint titer of 1.53 ng/mL.

B2: MAb 2BB6 (antibody, V domains shown)
VH: EVQLEESGPDLVKPSQSLSLTCTVTGFSITSGYSWHWIRQFPGNKLEWMGYIHFSGSTNYNPSLKSRISITRDTSKNQFFLQLSSVTTDDTGTYYCARDLTGIDSWGQGTTLTVSS
VL: DIVMTQTPAIMSASPGEKVTISCSASSSVSYMYWFQQKPGSSPKPWIYRTSNLASGVPARFSGSGSGTSYSVTISSMEAEDAATYYCQQYHSYPLTFGAGTKLELK
The molecule B2 yielded an ELISA endpoint in assay [1] of 10000 ng/mL.

B3: MAb 2BA2 (antibody, V domains shown)
VH: VQLQESGPGLVKPSQPLSLTCSVTGYSITSAYYWNWIRQFPGNKLEWMGYITYDGTNNYNPSLKNRISITRDTSKNQFFLKLNSVTTEDTASYYCARDVATVGAMDYWGQGTSVTVSS
VL: SIVMTQTPKFLLVSAGDRVTITCKASQSVSNDVAWYQQKPGQSPKLLIYFASNRYTGVPDRFTGSGYGTDFTFTISTVLAEDLALYFCQQDYSSPRTFGGGTKLEVK
Molecule B3 showed an ELISA endpoint in assay [1] of 39.1 ng/mL. Moreover, the ELISA endpoint titer in assay [2] stood at 39.1 ng/mL.

B4: MAb 2AF11 (antibody, V domains shown)
VH: QVTLKESGPGILQPSQTLSLTCSFSGFSLSTSGMSVGWIRQPSGKGLEWLAHIWWNDDMYYNPALESRLTISKDTSNNQVFLKIASVVTADTATYYCARIALTGPYWYFDVWGAGTTVTVSS
VL: DIVMTQTPASLSASVGETVTITCRASENIYSYLAWYQQKQGKSPQLLVNNAKTLAEGVPSRFSGSGSGTQFSLKINSLQPEDCGNYYCQHHYGTPLTFGAGTKLELK
In assay [3], B4 returned an IFA endpoint titer of 1 µg/mL. For the same molecule, in assay [1], the ELISA endpoint is 10000 ng/mL.

B5: MAb 2BB7 (antibody, V domains shown)
VH: EVQLQQSGPDLVKPGASMKISCKASGYSFTAYTMNWVKQSHGKNLEWIGLISPYNGGTSYNQKFKGKATLTVDKSSSTAYMELLSLTSEDSAVYYCARQIGPYFDHWGQGTTLTVSS
VL: IVMTQTTPSSMYASLGERVTITCKASQDIKSSFSWFQQKPGKSPKTLIYRASRLVDGVPSRFSGSGSGQDSSLTISSLEYEDMGIYYCLQCDEFPYTFGGGTKLEIK
Turning to B5, in assay [1], the ELISA endpoint is 24.4 ng/mL. Also, the ELISA endpoint titer in assay [2] came out at 24.4 ng/mL.

B6: MAb 2AG8 (antibody, V domains shown)
VH: VKLEESGAELVRSGASLKMSCKASGYTFTSYNLHWVKQTPGQGLEWIGYIFPGNGGTAYNEKFKGKATLTADTSSSTAYMQISSLTSEDSAVYFCARGGPYYALDYWGQGTSVTVSS
VL: DIVMTQSPASLSASVGETVTITCRTSGNIHTYLAWYQHKQGKSPQLLVYYAKTLADGVPSRFSGSGSGTQYSLKINSLQPEDFGSYYCQHFWSNPRTFGGGTKLEIKR
Regarding B6, in assay [1], the ELISA endpoint stood at 0.381 ng/mL. This molecule also came in with an ELISA endpoint titer in assay [2] of 0.381 ng/mL.

B7: MAb 2BB8 (antibody, V domains shown)
VH: QAYLQQSGAELVRSGASLKMSCKASGYTFTSYNLHWVKQTPGQGLEWIGYIFPGNGGTAYNEKFKGKATLTADTSSSTAYMQISSLTSEDSAVYFCARGGPYYALDYWGQGTSVTVSS
VL: DIQMTQSPASLSASVGETVTITCRTSGNIHTYLAWYQHKQGKSPQLLVYYAKTLADGVPSRFSGSGSGTQYSLKINSLQPEDFGSYYCQHFWSNPRTFGGGTKLEIK
B7 displayed an ELISA endpoint in assay [1] of 0.61 ng/mL. Moreover, in assay [2], the ELISA endpoint titer was 0.61 ng/mL.

B8: MAb 2BB5 (antibody, V domains shown)
VH: EVQLEESGGGLVQPGGSMKLSCVASGFTFSNYWMNWVRQSPEKGLEWVAEVRLNSNNYATHYAESVKGRFTISRDDSKSSVYLQMSNLRSEDTGIYYCSTDYYGYAMDYWGQGTSVTVSS
VL: DIVMTQTPSIMSASPGEKVTITCSASSNVNYMHWFQQKPGTSPKLWIYSTSNLASGVPARFSGSGSGTSYSLTISRMEAEDAATYYCQQRSNYPPTFGAGTKLELK
Molecule B8 came in with an ELISA endpoint in assay [1] of 0.156 ng/mL. Further, in assay [2], the ELISA endpoint titer stood at 0.156 ng/mL.
